From patent publication US20240181006A1, “POLYPEPTIDES BINDING ADAMTS5, MMP13 AND AGGRECAN” (Merck Patent GmbH, priority 2017, published 2024) come the findings set out here.

Test [1] deals with human MMP14 (Homo sapiens, UniProt P50281). Nature of the test: FRET-based human MMP14 assay (selectivity of 02F03). The class given is biochemical. The settings on record: data not shown. Here is the method: To confirm the selectivity of ISVD 02F03 for ADAMTS5, inhibition of the enzymatic activity of MMP1, MMP14 and ADAMTS4 was evaluated via FRET-based assays and a human ADAMTS4 AlphaLISA, with the respective enzymes.
Activated human MMP1 or MMP14 was incubated for 30 minutes at room temperature with 10 μl of dilution series of ISVD 02F03. After incubation, 20 μl of respectively 5 μM or 2.5 μM fluorogenic peptide substrate (Mca-PLGL-Dpa-AR-NH2 Fluorogenic MMP Substrate (R&D Systems cat #ES001)) was added. The ability of ISVD 02F03 to prevent MMP1- and MMP14-mediated cleavage was monitored every minute for 2 hours at 37° C. on a Tecan Infinite M1000 plate reader.

Test [2] has as its system cynomolgus monkey ADAMTS5. The test can be described thus: SPR-based off-rate analysis, cynomolgus ADAMTS5. The settings on record: Experiment 1. The class given is binding. The method, then: Species cross-reactivity was initially evaluated via SPR-based off-rate analysis on a Biacore T100 instrument. Polypeptides were tested for binding to human, cynomolgus monkey (“cyno”), guinea pig, mouse, and bovine ADAMTS5. To this end, recombinant ADAMTS5 was immobilized onto a CM5 chip via amine coupling using EDC and NHS. Purified ISVD 02F03 was injected for 2 minutes at a concentration of 100 nM and allowed to dissociate for 15 min at a flow rate of 45 μl/min. Off-rate for each individual ADAMTS5 was determined by fitting a 1:1 interaction model (Langmuir model) onto the individual dissociation curves using the BIA Evaluation software. As a reference, off-rates on human ADAMTS5 were determined in each experiment.

Test [3] addresses T1, human ADAMTS5 (Homo sapiens, UniProt Q9UNA0).
T1 sequence (Q9UNA0 262-930): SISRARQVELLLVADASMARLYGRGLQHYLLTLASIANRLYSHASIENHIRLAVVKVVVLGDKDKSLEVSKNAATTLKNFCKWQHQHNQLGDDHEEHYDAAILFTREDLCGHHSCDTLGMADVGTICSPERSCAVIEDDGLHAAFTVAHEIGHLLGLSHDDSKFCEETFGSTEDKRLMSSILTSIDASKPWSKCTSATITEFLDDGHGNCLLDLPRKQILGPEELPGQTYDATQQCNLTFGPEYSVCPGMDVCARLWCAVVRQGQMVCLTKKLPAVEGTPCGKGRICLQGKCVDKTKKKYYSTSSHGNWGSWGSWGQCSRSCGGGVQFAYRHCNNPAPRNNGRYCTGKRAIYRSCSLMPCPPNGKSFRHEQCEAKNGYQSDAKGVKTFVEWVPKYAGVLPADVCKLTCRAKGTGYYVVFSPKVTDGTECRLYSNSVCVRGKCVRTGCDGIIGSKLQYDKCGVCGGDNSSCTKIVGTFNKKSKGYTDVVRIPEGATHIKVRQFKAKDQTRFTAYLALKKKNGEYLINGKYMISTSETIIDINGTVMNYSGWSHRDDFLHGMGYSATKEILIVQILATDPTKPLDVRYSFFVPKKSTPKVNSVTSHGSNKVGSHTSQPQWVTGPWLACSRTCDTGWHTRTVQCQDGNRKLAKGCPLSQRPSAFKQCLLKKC
Nature of the test: FRET-based human ADAMTS5 enzymatic assay. The class given is biochemical. Here is the method:
In short, a periplasmic extract of ISVD 02F03 was tested for binding to recombinant human ADAMTS5 by binding ELISA. Next, it was confirmed that ISVD 02F03 was able to prevent ADAMTS5-mediated cleavage of Aggrecan in a FRET-based human ADAMTS5 enzymatic assay. Next to the FRET-based assay, an AlphaLISA (Perkin Elmer, Waltham, MA, US) based human ADAMTS5 assay with a biotinylated 43-mer Aggrecan oligopeptide as substrate was performed. Upon ADAMTS5 cleavage of this substrate, a biotinylated ARGSV neo-epitope product is released and can be detected by streptavidin-AlphaScreen donor beads and an α-neo-epitope (“ARGSV”) antibody captured on anti-mouse IgG-coated AlphaLISA acceptor beads, resulting in the generation of a luminescence AlphaScreen signal upon laser excitation. To determine the ability of ISVD 02F03 to prevent ADAMTS5-mediated cleavage of the substrate, the decrease in signal was analysed in function of ISVD 02F03 concentration and IC50 values were calculated.

The test system of test [4] is bovine cartilage explant chips. Nature of the test: bovine cartilage explant assay, IL-1α induced GAG release (02F03). It counts as cell-based. The method, then:
In addition, ISVD 02F03 was further evaluated for its ability to block cartilage degradation in an ex vivo assay, in which the substrate is presented in a condition closer to the physiological condition compared to biochemical assays. In brief, bovine cartilage explant chips (diameter 4 mm) were prepared freshly from cow knee joints and incubated in 96-well plates in presence of IL-1α to induce cartilage degradation. As a measure of cartilage/Aggrecan degradation, the release of glycosaminoglycan (GAG) was detected in the supernatant after 5 days of incubation (37° C., 7.5% C02) via the metachromatic dye 1,9 dimethylmethylene blue ([…] at 633 nm). Chondroitin sulphate was included as assay standard. Efficacy was defined by means of the IL-1α-induced controls without compound (0%) and in presence of MSC2310852A (100% effect).

B1: ISVD 02F03: immunoglobulin single variable domain which specifically binds ADAMTS5 (protein)
VHH: EVQLVESGGGVVQPGGSLRLSCAASGRTVSSYAMGWFRQAPGKEREFVAGISRSAERTYYVDSLKGRFTISRDNSKNTVYLQMNSLRPEDTALYYCAADLDPNRIFSREEYAYWGQGTLVTVSS
modifications: Description of Artificial Sequence: Synthetic anti-ADAMTS5 immunoglobulin single variable domain (ISVD)
In general, IC50 refers to the concentration needed to halve the response being measured. On to B1, for which the “inhibition of MMP14 activity” value in test [1] is recorded as “did not show any inhibition”. Also, the “SPR based off-rate, kd, Cyno ADAMTS-5” value in test [2] is 2.2e-05 s⁻¹. Also, in test [3], the “Human FRET % inhibition” value is recorded as 89%. Besides, the IC50 in test [4] (IL-1α, GAG release after 5 days) came out at 14 nM. For the same molecule, the “IC50 times lower than mAb 12F4 in bovine explant assay” value in test [4] (versus bivalent mAb 12F4) was “about 50 times”.
